# From the RNAGym collection of RNA variant scans (doi:10.1073/pnas.2313332121)
# Variants at the floor of the assay were thinned out.
# B1: TPR 5TU (parent)
# chain: GGAUCUUCUCGAUCUAACAAAAAAGACAAAUCUGCCACAAAGCUUGAGAGCAUCUUCGGAUGCAGAGGCGGCAGCCUUCGGUGGCGCGAUAGCGCCAACGUUCUCAACUAUGACACGCAAAACGCGUGCUCCGUUGAAUGGAGUUUAUCAUG
# Variants of: B1
# Test: polymerase ribozyme fitness, log enrichment relative to wild type (log ratio); higher = more active; in vitro selection for triplet polymerase activity
# How it was run: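 Genotype fitness is the logarithm of its enrichment divided by wild-type enrichment, using inverse-variance-weighted averages of replicates. That logarithm is base 2. Enrichment was measured by Illumina sequencing of input and output libraries from one triplicate in vitro selection round, with frozen incubation at −7 °C, on PCR-built, transcribed mutant libraries of each subunit of a heterodimeric triplet polymerase ribozyme, retaining genotypes with ≥10 input reads and ≥1 read per output.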
row,Variant,polymerase ribozyme fitness (log ratio)
1,GGAUCUUCUCGAUCUAACAAAAAAGACAAAUCUGCCACAAAGCUUGAGAGCAUCUUCGGAUGCAGAGGCGGCAGCUUUCGGUGGCGGGAUAGCGCCAACGUUCUCAACUAUGACACGCAAAACGCGUGCUCCGUUGAAUGGAGUUUAUCAUG,-3.96
2,GGAUCUUCUCGAUCUAACAAAAAAGACAAAGCUGCCACAAAGCUUGAGAGCAUCAUCGGAUGCAGAGGCGGCAGCCUUCGGUGGCGCGAUAGCGCCAACGUUCUCAACUAUGACACGCAAAACGCGUGCUCCGUUGAAUGGUGUUUAUCAUG,-1.54
3,GGAUCUUCUCGAUCUAACAAAAAAGACAAAACUGCCACAAAGCUUGAGAGUAUCUUCGGAUGCAGAGGCGGCGGCCUUCGGUGGCGCGAUAGCGGCAACGUUCUCAACUAUGACACGCAAAACGCGUGCUCCGUUGAAUGGAGUUUAUCAUG,-3.09
4,GGAUCUUCUCGAUCUAACAAAAAAGACAAAUCUGCCACAAAGCUUGAGAGCAUCUUUGGAUGCAGAGGCGGCAGCCUUCGGUGGCGUGAUAGCGCCAACGUUCUCAACUAUGACAUGUCAAACGCGUGCUCCGUUAAAUGGAGUUUAUCAUG,0.419
5,GGAUCUUCUCGAUCUAACAAAAAAGACAAAUCUGCCACAAAGCUUGAGAGCAUCUUCGGAUUCAGAGGCGGCAGCCUUCGGUGGCGCGAUAGCGCCAACGUUCUCAACUAUGACACGCAAAACGCGUGCUCCGUUGAAUGGAGUUUAUCAUG,-0.546
6,GGAUCUUCUCGAUCUAACAAAAAAGACAAAUCUGCCACAAAGCUUGAGACCAUCUUCGCAUGCAGAGGCGGCAGCCUUCGGUGGCGCGAUAGCGGCAACGUUCUCAACUAUGACACGCAAAACGCGUGCUCCGUUGAAUGGAGUUUAUCAUG,-3.67
7,GGAUCUUCUCGAUCUAACUAGAAAGACAAAUCUGCCACAAAGCUGGAGAGCAUCUACGGAUGCAGAGGCGGCAGCCUUCGGUGGCGCGAUAUCGCCAACGUUCUCAACUAUGACACGCAAAACGCGUGCUCCGUUGAAUGGAGUUUAUCAUG,-1.94
8,GGAUCUUCUCGAUCUAACAAAAAAGACAAAUCUGCCACAAAGCUUGAGAGCAUCUUAGGAUGCAGAGGCGGCAGCCUUCGGUGGCGUGAUAGCGCCAACGUUGUCAACUAUGACACGCAAAACGCGUGCUCCGUUGAAUGGAGUUUAUCAUG,-2.01
9,GGAUCUUCUCGAUCUAACAAAAAAGCCAAAUCUGCCAGAAAGCUUGAGAGCAUCUUCGGAUGCAGAGCCGGCAGCUUUCGGUGUCGCGAUAGCGCCAACGUUCUCAACUAUGACACGCAAAACGCGUGCUCCGUUGAAGGGAGUUUAUCAUG,≤ -4.2
10,GGAUCUUCUCGAUCUAACAAAAAAGACAAAUCUGCCACAAAGCUUGAGAGCAUCUUCGGAUGCAGAGGCGGCAGCCUUCGGUGGCGCGAUAGCGCCAGCGUUCUCAACUAUGACACGCAAAACGCGUGCUCGGUUCAAUGGAGUUUAUCAUG,-4.12
11,GGAUCUUCUCGAUCUAACAAAAAAGACAAAUCUGCCACAAAGCUUGAGCGCAUCUUCGGAUGCAGAGGCGGCAGCCUUCGGUGGCGCGAUAGCGCCAACGUUCUCAACUAUGACACGCAAAACGCGUGCUCCGUUGAAUGGAAUUUAUCAUG,-4.14
12,GGAUCUUCUCGAUCUAACAAAAAAGACAAAUCUGCCACAAAGCUUGAGAGCAUCUUCGAAUGCAGAGGCGGCAGCCUUCGGUGGCGCGAUAUCGCCAACGUUCCCAACUAUGACACGCAACACGCGUGCUCCGUUGAAUGGAGUUUAUCAUG,-2.09
13,GGAUCUUCUCGAUCUAACAAAAAAGACAAAUCUGCCACAAAACUUGAGAGCAUCUUCCCAUGCAGAGGCGGCAGCCUUCGGUGGCGCCAUGGCGCCAACGUUCUCCGCUAUGACACGCAAAACGCGUGCUCCGUUGAAUGGAGUUUAUCAUG,≤ -4.2
14,GGAUCUUCUCGAUCUAACAAAAAAGACAAAUCUGACACAAAGCUUGAGAGCAUCUUCGGAUGCAGAGGCGGCAGCCUUCGGUGGCGCGAUAGCGCCAACGUUCUCAAGUAUGACAAGCAAAACGCGUGCUCCGUUGAAUGGUGUUUAUCAUG,≤ -4.2
15,GGAUCUUCUCGAUCUAACAAAAAAGACAAAUCUGCCAUAAAGCUUGAGCGCAUCUUCGGAUGCAGAGGCGGCAGCCUUCGGUGGCGCGAUAGCGCCAACGUUCUCAACUAUGACACGCAAAACGCGUGCUCCGUUGAAUGGAGUUUAUCAUG,≤ -4.2
16,GGAUCUUCUCGAUCUAACCAAAAAGACAAAUCUGCCACAAAGCUUGAGAGCAUCUUCGGAUGCAGAGGCGGCAGCCUUCGGUGGCGUGAUAGCGCCGACGUUCUCAACUAUGACACGCAAAACGCGUGCUCCGUUGUAUGGCGUUUAUCAUG,-4.12
17,GGAUCUUCUCGAUCUAACAAAAAACAGAAAUUUGCCACACAGCUUGAGAGCAUCAUAGGAUGCAGAGGCGGCAGCCUUCGGUGGCGCUAUAGCGCUAACGUUCUCAACUAUGACACGCAAAACGCGUGCUCCGUUGAAUGAAGUUUAUCAUG,≤ -4.2
18,GGAUCUUCUCGAUCUAGCAAAAAAGACAUAUCUGCCACAAAGCUUGAGAGCAUCUUCGGAUGCAGAUGCGGCAGCCUUCGGUGGCGCGAUAGCGCCAACAUUCUCAACUAUGACACGCAAAAGGCGUGCUCGGUUGAAUGGAGUUUAUCAUG,≤ -4.2
19,GGAUCUUCUCGAUCUAACAAAAAAGACAAAUCUGCCACAAAGCUUGAGAGCAUUUUCGGAUGCGGAGACGGCAGCCCUCGGUAGCGCUAGAGCGCCAACGUUCUCAACUAUGACACGCAAAACGCGUGCUCUGUUGAAGGGAGUUUAUCAUG,≤ -4.2

row,Variant,polymerase ribozyme fitness (log ratio)
1,GGAUCUUCUCGAUCUAACAAAAAAGACAAAUCUGCCACAAAGCUUGAGAGCAUCUUCGGUUGCAGAGGCGGCAGCCUUUGUUGGCGCGAUGGCGGCAACGUACUCAACUAUGACACGCAAAACGCGUGCUCCGUUGAAUGGAGUUUAUCAUG,≤ -4.2
2,GGAUCUUCUCGAUCUAACAAAAAAGACAAAUCUGCCACAAAGCUUGAGAGCAUCUUCGGUUGCAGAGGCGGCAGCCUUCGGUGGCGCGAUAGUGCCAACGUUCUCAACUAUGACACGCAAAACGCGUGCUCCGUUGAAUGGAGUUUAUCAUG,-3.16
3,GGAUCUUCUCGAUCUAACAAAAAAGACAAAUCUGCCACAAAGCUUGAGAGCAUCUUCGGAUGCAGAGGCGGCAGCCUUCGGUGGCGCGAUAGCACCAACGUUCUCAACUAUGACACGCAAAACGCGUGCUCCGUUGCAUGGAGUUUAUCAUG,-3.2
4,GGAUCUUCUCGAUCUAACAAAAAAGACAAAUCUGCCACAAAGCUUGAGAGCAUCUUCAGAUGCAGAGGCGGCAGCCUUCGGUGGUGCGAUAGCGCCAACGUUCUCAACUAUGACUCGCAAAACGCGUGCUCCGUUGAAUGGAGGUUAUCAUG,-1.46
5,GGAUCUUCUCGAUCUAACAAAAAAGACAAAUCUGCCACAAAGCUUGAGAGCAUCUUCAGAUGCAGAGGCGGCAGCCUUCGGUGGCGCGAUAGCCCCAACGUUCUCAACUAUGACACGCAAAACGCGUGCUCCGUUGAAUGGAGUUUAUCAUG,-0.674
6,GGAUCUUGUCGAUCUAACAAAAAAGACAAAUCUGUCACAUAGCUUGAGAGCAUCUUCGGAUGCAGAGGCGGCAGCCUUCGGUGGCGCGAUAGCGUCAACGUUCUCAACUAUGACACGCAAAACGCGUGCUCCGUUGAAUGGAGUUUAUAAUG,≤ -4.2
7,GGAUCUUCUCGAUCUAACAAAAAUGACAAAUCUGCCACAAAGCUUGAGAGCAUCUUCGGAUUCAGAGGCGGCAGCCUUCGGUGGCGCGAUAGCGCAAACGUUCUCAACUAUGACACACAAAACGCGUGCUCCGUUGAAUGGAGUUUAUCAUG,-1.86
8,GGAUCUUCUCGAUCUAACAAAAAAGACAAAUCUGCCACAAAGCUUGAGAGCAUCUUCGGAUGCAGAGGCGGCGGCCUUCGGUGGCGCGAUAGCGCCAACGUUCUCAACUAUGACACGCAAAACGCGUGCUCCGGUGAAUGGAGUUUAUCAUG,-2.2
9,GGAUCUUCUCGAUCUAACAAAAAAGAGAAAUCUGCCACAAAGUUUGAGAGCAUCUUCGGAUGCAGAGGCGGCAGGCUGCGGUGGCGCGAUAGCGCCAACGUUCUCAACUAUGACACGCAAAACGCGUGGUCCGUUGAAUGGAAUUUAUCAUG,≤ -4.2
10,GGAUCUUCUCGAUCUAACAAAAAAGACAAAUCUGCCACAAAGCUUGAGAGCAUCUUCAGAUGCAGAGGCGGCAGCCUUCGGUGGCGCGAUAGCGCCAACGUUCUCAACUAUGACACGCAAAACGCGUGCUCCAUUGAAUGGAGUUUAUCAUG,-4
11,GGAUCUUCUCGAUCUAACAAAAAAGACAAAUCUGCCACAAAGCUUGAUAGCAUCUUCGGAUGCAGAGGCGGCAGCCUUCGGUGGCGCGAUAGCGCCAACGUUCUCAACUAUGACACGGAAAACGCGUGCUCCGUUGAAUGGAGUUUAUCAUG,-0.339
12,GGAUCUUCUCGAUCUAACAAAAAAGACUAAUCUGCCACAAAGCUUGAGAGCAUCUUCGGAUGCAGAGGCGGCAGCCUUCGGUGGCGCGAUAGCGCUAACGUUCUCAACUAUGACACGCAAAACGCGUGCUCCGUUGAAUGGAGUUUAUCAUG,-3.66
13,GGAUCUUCUCGAUCUAACAAAAUAGACAAAUCUGCCACAAAGCUUGAGAGCGUCUUCGGAUGCAGAGGCGGCAGCCUUCGGUGGUGCGGUAGCGCCAACGUUCUCGACUAUGACACGCAAAACGCGUGCUCCGUUGAAUGUAGUUUAGCAUG,≤ -4.2
14,GGAUCGUCUCGAUCUAACAAAAAAGACAAAUCUGCCACAAAGCUUGAGAGCAUCUUCGGAUGCAGAGGCGGCAGCCUUCGGUGGCUCGAUAGCGCCAACGUUCUCAACUAUGACACGCAAAACGCGUGCUCCGUUGAAUGGAGUUUAUCAUU,-4.12
15,GGAUCUUCUCGAUCUAACAAAAAAGACAAAUCUGCCACAAAGCUUGAGAGCAUCUACGGAUGCAGAGGUGGCAGCCUUCGGUGGCGCGAUAGCGCCAACGUUCUCAACUAUGACACGCAAAACGCGUGUUCCGUUGAAUGGAGUUUAUCAUG,-0.94
16,GGAUCUUCUCGAUCUAACAAAAAAGACAAAUCUGCCACAAAGCAUGAGAGCAUCAUCGGAUGGAGAGGCGGCAGCCUUCGGUGGUGGGAUAUCGCCAACGUUCUCAACUAUGACACGCAAAACGCGUGCUCCGUUGAAUGGAGUUUAUCAUG,≤ -4.2
17,GGAUCUUCUCGAUCUAACAAAAAAGACAAAUCUGCCACAAAGCUUGAGAGCAUCAUCGGAUGCAGAGGCGGCUGCCUUCGGUGGCGCGAUAGAGCCAACGUUCUCAACUAUGACACGCAAAUCGCGUGCUCCGUUGAAUGGAGUUUAUCAUG,-3.55
18,GGAUCUUCUCGAUCUAACAAAAAAGACAAAUCUGCCACAAAGCUGGAAAGCAUCUUCGGAUGCAGAGGCGGCAGCCUUCGGUGGCGCCAUAGCGCCAACGUUCUCGACUAUGACACGCAAAACGCGUGCUCCGUUGAAUGGAGUUUAUCAUG,≤ -4.2
19,GGAUCUUGUCGAUCUAACAAAAAAGACAAAUCUGCCACAAAGCUUGAGAGCAUCUUCGGAUGCAGAGGCGGCAGCCUUCGGUAGCGCGAUAGCGCCUACGUUCUCAACUAUGACACGCAAAACGCGAGCUCCGUUGAAUGGAGUUUAUCAUG,≤ -4.2
